# Test results reported in patent US7361348B2, “Immunogenic glycopeptides, screening, preparation and uses” (priority 2000, dated 2008).
# “Also recorded” adds a separate entry of the source. Like-named read-outs stand apart in the source and are kept apart here.
# B1: Native Apa: Mannosylated protein secreted by M. tuberculosis, product of the Rv 1860 gene, purified from culture supernatant (protein, UniProt P9WIR7 40-325, looked up)
# Alanine and proline-rich …: DPEPAPPVPTTAASPPSTAAAPPAPATPVAPPPPAAANTPNAQPGDPNAAPPPADPNAPPPPVIAPNAPQPVRIDNPVGGFSFALPAGWVESDAAHFDYGSALLSKTTGDPPFPGQPPPVANDTRIVLGRLDQKLYASAEATDSKAAARLGSDMGEFYMPYPGTRINQETVSLDANGVSGSASYYEVKFSDPSKPNGQIWTGVIGSPAANAPDAGPPQRWFVVWLGTANNPVDKGAAKALAESIRPLVAPPPAPAPAPAEPAPAPAPAGEVAPTPTTPTPQRTLPA
# modifications: native mannosylated
# notes: Mannosylated protein secreted by M. tuberculosis, product of the Rv 1860 gene, purified from culture supernatant
# B2: Deglycosylated Apa: deglycosylated Apa protein prepared as described in example 1 (α-mannosidase digestion) (protein, UniProt P9WIR7 40-325, looked up)
# Alanine and proline-rich …: B1 Alanine and proline-rich …
# modifications: deglycosylated
# B3: glycosylated Apa produced by Mycobacterium smegmatis: Glycosylated Apa produced by M. smegmatis, overall mannose composition slightly different from M. tuberculosis Apa (protein, UniProt P9WIR7 40-325, looked up)
# Alanine and proline-rich …: B1 Alanine and proline-rich …
# modifications: glycosylated, produced in M. smegmatis
# B4: E. Coli recombinant Apa: deglycosylated recombinant Apa produced in E. coli (protein, UniProt P9WIR7 40-325, looked up)
# Alanine and proline-rich …: B1 Alanine and proline-rich …
# modifications: non-glycosylated, produced in E. coli
# Experiments:
# [1] = tested on: guinea pigs immunized with heat-inactivated BCG; format: in vivo, guinea pig
# [2] = tested on: T lymphocytes; assay: in vitro lymphocyte proliferation assay; format: cell-based
# Text: The conditions of the assay are those described in Horn et al., mentioned above.
# [3] = tested on: guinea pigs immunized with live BCG; format: in vivo, guinea pig; settings: for loss of antigenic activity during digestion with α-mannosidase: 0.2 μg intradermally
# [4] = tested on: specific CD4+ T lymphocytes; settings: cited from earlier work
# [5] = tested on: guinea pigs immunized with the plasmids pAG831 or pAG832; format: in vivo, guinea pig; settings: antigen 0.2 μg in 100 μl
# [6] = tested on: guinea pigs immunized with the Apa fusion peptide; format: in vivo, guinea pig
# [7] = guinea pigs immunized with live BCG
molecule,measurement,setting,value
"Lip: Mannosylated glycopeptide purified from M. tuberculosis culture, derived from the protein encoded by the Rv1796 gene (SEQ ID NO:3) (TIPTTETPPPPQTVTLSPVPPQTVTVIPAPPPEEG; not fully specified; mannosylated; MOD_RES (4)..(4) glycosidic bond to a di- or a tri-saccharide; listed as Mycobacterium tuberculosis)",delayed-type hypersensitivity reaction (in words),[1],relatively inactive
same,T-lymphocyte proliferation,[2]; T lymphocytes treated with an antibody directed against CD4 molecules,marginal
same,T-lymphocyte proliferation,[2]; glycopeptide treated with α-mannosidase,marginal
same,T-lymphocyte proliferation,[2]; native Lip,dependent on the peptide concentration
same,delayed-type hypersensitivity of the peptide treated with subtilisin,"[3]; 0.02 μg in 0.1 ml, live BCG",abolishes the antigenic activity; also recorded: negative
same,delayed-type hypersensitivity of the peptide treated with α-mannosidase,"[3]; 0.02 μg in 0.1 ml, live BCG",negative
same,antigenic activity after deglycosylation,"[3]; after α-mannosidase 24 h at 37° C., live BCG",less than 30 000 TU/mg
same,activity relative to the standard purified proteins from M. tuberculosis (PPD),"[3]; at an equivalent amount of proteins, Lip 0.02 μg vs PPD 0.25 μg in 0.1 ml",at least 10 times
same,antigenic activity,[3]; [7],1 000 000 TU/mg
same,delayed-type hypersensitivity reaction (in words),[3]; [7],very active
same,loss of the antigenic activity by action of α-mannosidase,[3]; α-mannosidase 24 h at 37° C.,more than 95%
B1,loss of antigenicity on demannosylation,"[4]; α-mannosidase, TFMS or expression in E. coli",100 fold
same,loss of antigenic activity during digestion with α-mannosidase,"[3]; digestion 1 h, tuberculin titre vs PPD standard",66%
same,loss of antigenic activity during digestion with α-mannosidase,[3]; digestion 4 h (3 to 6 mannose residues remain),86%
same,delayed-type hypersensitivity reaction (in words),[3]; [7],show a delayed-type hypersensitivity reaction only in response to the native Apa; also recorded: considerable; also recorded: only the glycosylated native Apa is antigenic
same,delayed-type hypersensitivity / CD4+ T lymphocyte response (in words),[5],equivalent
same,delayed hypersensitivity sensitization (in words),[6],identical
B2,delayed-type hypersensitivity reaction (in words),[3]; [7],very weak or absent
same,delayed-type hypersensitivity / CD4+ T lymphocyte response (in words),[5],of the same strength as the responses observed with the glycosylated native antigen
same,delayed hypersensitivity sensitization (in words),[6],identical
B3,decrease of antigenic activity versus Apa produced by M. tuberculosis,[4],approximately 10 fold
B4,delayed-type hypersensitivity reaction (in words),"[3]; guinea pigs immunized with live BCG, listed as molecules produced in E. coli",very weak or absent
same,delayed-type hypersensitivity reaction (in words),"[3]; guinea pigs immunized with live BCG, listed as non-glycosylated recombinant Apa produced in E. coli",no reaction or develop a greatly decreased reaction
same,delayed-type hypersensitivity / CD4+ T lymphocyte response (in words),[5],of the same strength as the responses observed with the glycosylated native antigen
same,delayed-type hypersensitivity / CD4+ T lymphocyte response (in words),[5]; listed as E. coli rApa,equivalent
